Experimental data taken from US20190315864A1 (SUZHOU ALPHAMAB, published 2019).

Experiments:
CTLA4-Fc fusion protein [1] = target: T1, CTLA4-Fc fusion protein (human, biotinylated where used as CTLA4-Fc-Biotin (Examples 5.1-5.3)); test: ELISA, CTLA4-Fc coated, 10 ng VHH/well
T1 construct: expressed in HEK293 cells; also called human CTLA4-Fc protein; CTLA4-Fc antigen protein
Experimental: (§1) Plates were coated with CTLA4-Fc fusion protein overnight at 4° C. and 10 ng of the heavy chain single-domain antibody obtained in Example 2.1 (the control was a single domain antibody not binding to the CTLA4-Fc protein) was added to each well and allowed to react for 1 hour at room temperature. After washing, primary antibody anti-His tag antibody (purchased from Beijing Kangwei Century Biotechnology Co., Ltd.) was added and reacted for 1 hour at room temperature. After washing, a secondary goat anti-mouse horseradish peroxidase-labeled antibody (Yiqiao Shenzhou, Cat: SSA007200) was added and reacted for 1 hour at room temperature. After washing, chromogenic agent was added and the absorbance was read at 405 nm.

Fc protein = target: T2, Fc protein; test: ELISA, Fc protein coated, 10 ng VHH/well
T2 construct: Counter-screen for the Fc part of CTLA4-Fc
Experimental: (§2) Plates were coated with Fc protein overnight at 4° C. and 10 ng of the heavy chain single domain antibody obtained in Example 2.1 was added to each well (control was a single domain antibody against other unrelated targets) and allowed to react for 1 hour at room temperature. After washing, an rabbit anti-human Fc antibody (purchased from Shanghai Pu Xin Biotechnology Co., Ltd.) was added and reacted for 1 hour at room temperature. After washing, goat anti-rabbit horseradish peroxidase labeled antibody (purchased from Shanghai Pu Xin Biotechnology Co., Ltd.) was added and reacted at room temperature for 1 hour. After washing, chromogenic agent was added and the absorbance was read at 405 nm.

CTLA4-Fc fusion protein [2] = target: T1, CTLA4-Fc fusion protein; test: ELISA OD ratio, value equals OD(CTLA4)/OD(Fc)
Experimental: as §1, §2

CTLA4-Fc fusion protein [3] = target: T1, CTLA4-Fc fusion protein; test: ELISA OD ratio, value equals OD(CTLA4)/OD(blank)
Experimental: as §1

CTLA4-Fc fusion protein [4] = target: T1, CTLA4-Fc fusion protein; test: competitive ELISA: CD80-Fc-Biotin signal on coated CTLA4-Fc with 500 ng VHH/well; competitor CD80-Fc-Biotin
Experimental: SA-HRP (purchased from Sigma) was added and allowed to react for 1 hour at room temperature. After adding chromogenic solution, absorbance was read at 405 nm wavelength.

| OD (against CTLA4) (CTLA4-Fc fusion protein [1]) [OD405] | OD (against Fc) (Fc protein) [OD405] | ODa/OD blank (CTLA4-Fc fusion protein [2]) | ODa/ODb (CTLA4-Fc fusion protein [3]) | OD (CTLA4-Fc fusion protein [4]) [OD405] | Binder |
| --- | --- | --- | --- | --- | --- |
| 1.51 | 0.085 | 17.8 | 54 | 2.43 | CTLA4 heavy chain single domain antibody No. C29 (VHH, Camel VHH expressed in E. coli (PET32b), nickel-purified) VHH: QVQLQESGGGSVQAGGSLRLSCAVSGYTYSGYCMGWFRQAPGKEREGVAAISRGDGSPGYADSVKGRFTISQDNAKNTLYLQMNSLKPEDTAMYYCAADVIPTETCSYGSWSGPNGYWGQGTQVTVSS |
| 1.21 | 0.051 | 23.8 | 43.4 | 1.84 | CTLA4 heavy chain single domain antibody No. 165 (VHH, Camel VHH expressed in E. coli (PET32b), nickel-purified) VHH: QVQLQESGGGSVQTGGSLRLSCVVSGHSYSRKCMGWFRQAPGKEREEVATFYTGDGRTYYADSVKGRFTISQDNAKNTLYLQMNSLKPEDTGMYFCAADRRVNCDLLQSTFYNYRGQGTQVTVSS |
| 1.27 | 0.036 | 35.2 | 45.3 | 0.893 | CTLA4 heavy chain single domain antibody No. 128 (VHH, Camel VHH expressed in E. coli (PET32b), nickel-purified) VHH: QVQLQESGGGSVQAGGSLKLSCAASGYTDYTYNTSCMGWFRQTPGKERERVATVNKVGSTIYADSVKGRFTISKDNVKNTLYLQMNSLKPEDTAMYYCAARGSWSCSQFWGDFGYWGQGTQVTVSS |
| 0.823 | 0.036 | 22.9 | 29.4 | 2.57 | CTLA4 heavy chain single domain antibody No. J35 (VHH, Camel VHH expressed in E. coli (PET32b), nickel-purified) VHH: QVQLQESGGGSVQAGGSLRLSCAASGYTSGYYVMGWYRQAPGKLREFVSSIDSNGGTMYADSVKGRFTISQDNAKNTAHLQMNSLKPEDTAMYYCKRDSPGNFYWGQGTQVTVSS |
| 1.02 | 0.045 | 22.7 | 36.5 | 2.28 | CTLA4 heavy chain single domain antibody No. C38 (VHH, Camel VHH expressed in E. coli (PET32b), nickel-purified) VHH: QVQLQESGGGSVQAGGSLRLSCAASRYTASSNCMAWFRQAPGKEREGVATIYNGGGSTAYADSVKGRFTISQDNAKNTVYLQMNSLKPEDTAMYYCGAGSPRFCASATMTGGHHLFGYWGQGTQVTVSS |
| 1.2 | 0.034 | 35.3 | 42.9 | 1.06 | CTLA4 heavy chain single domain antibody No. J37 (VHH, Camel VHH expressed in E. coli (PET32b), nickel-purified) VHH: QVQLQESGGGSVQAGGTLRLSCAVSGVTYSPHCMGWFRQAPGKEREGVAAIYNGGGSTAYADSVKGRFTISQDNAKNTVYLQMNSLKPEDTAMYYCGAGSPRFCASATMTGGHHLFGYWGQGTQVTVSS |
| 1.09 | 0.045 | 24.1 | 38.8 | 0.94 | CTLA4 heavy chain single domain antibody No. J42 (VHH, Camel VHH expressed in E. coli (PET32b), nickel-purified) VHH: QVQLQESGGGSVQAGGSLRLSCAASGYTYSSYNSNCMGWFRQAPGKEREGVAAIDSDGSTSYADSVKGRFTISKDNAKNTLYLQMNSLKPEDTAMYYCAASPRTCEVFSLGGSWHLFGYWGQGTQVTVSS |
| 1.75 | 0.042 | 41.6 | 62.4 | 2.13 | CTLA4 heavy chain single domain antibody No. J39 (VHH, Camel VHH expressed in E. coli (PET32b), nickel-purified) VHH: QVQLQESGGGSVQAGGSLRLSCAPSRYSGALMGWFRQAPGKEREGVAVISRSGLTTYYADSVKGRFTISQDTAKNTIYLQMNSMKPEDTAMYYCVAAPEARAWSSRDPTGYNYWGQGTQVTVSS |
| 1.21 | 0.036 | 33.6 | 43.2 | 2.5 | CTLA4 heavy chain single domain antibody No. J5 (VHH, Camel VHH expressed in E. coli (PET32b), nickel-purified) VHH: QVQLQESGGGSVQAGGSLRLSCAASGYTYSTYCMAWFRQVPEKERERVASIYTGGGTTYYADSVKGRFTISLDNAKNTLYLQMNSLKPEDTAMYYCAKSAARCDSSRDVNRLGYWGQGTQVTVSS |
| 1.79 | 0.053 | 33.7 | 63.8 | 1.89 | CTLA4 heavy chain single domain antibody No. C16 (VHH, Camel VHH expressed in E. coli (PET32b), nickel-purified) VHH: QVQLQESGGGSVQAGGSLTLSCAASGYTGDLVAWFRQTPGKEREGVAAISRTGLTTYYADSVKGRFTISQDTAKNTGYLQMNSMKPEDTAMYYCVAGWHVGGTWYKTSSYDYWGQGTQVTVSS |
| 1.4 | 0.046 | 30.4 | 50 | 2.53 | CTLA4 heavy chain single domain antibody No. J17 (VHH, Camel VHH expressed in E. coli (PET32b), nickel-purified) VHH: QVQLQESGGGSVQAGGSLRLSCAASGFTLSSYTMTWLRQAPGKGLEWVSTINSGGSTSYADSVKGRFAISRDNAKNILYLQLNSLEIEDTGMYYCQGGLTQRGQGTQVTVSS |
| 1.44 | 0.036 | 40 | 51.4 | 2.5 | CTLA4 heavy chain single domain antibody No. J29 (VHH, Camel VHH expressed in E. coli (PET32b), nickel-purified) VHH: QVQLQESGGGLVQPGGSLRLSCAASGFTISSYTMTWLHQAPGKGLEWVSTINSGGSTAYADSVKGRFAISRDNAKNTLYLQLNSLKIEDTGMYYCQGGLTQRGQGTQVTVSS |
| 1.23 | 0.035 | 35.2 | 44 | 2.52 | CTLA4 heavy chain single domain antibody No. C2 (VHH, Camel VHH expressed in E. coli (PET32b), nickel-purified) VHH: QVQLQESGGGSVQPGGSLRLSCAVSGFTFSGYCMAWVRQAPGKGLEWVASIHRRDGSTDYADSVKGRFTISKDNSKNTLYLQMSSLKPEDTAVYYCAADPARLSCSGRVNSEYKYRGQGTQVTVSS |
| 0.537 | 0.037 | 14.5 | 19.2 | 2.53 | CTLA4 heavy chain single domain antibody No. 119 (VHH, Camel VHH expressed in E. coli (PET32b), nickel-purified) VHH: QVQLQESGGGSVQAGGSLRLSCAASEYTYHTNCMGWFRQAPGKEREGLAVMNPSGGVTYFADSVKGRFTISRDNAKNTVYLQMNSLKPEDTAMYYCAAGRGRCSGYSGYYNEWGQGTQVTVSS |
| 1.84 | 0.041 | 45 | 65.8 | 1.92 | CTLA4 heavy chain single domain antibody No. 138 (VHH, Camel VHH expressed in E. coli (PET32b), nickel-purified) VHH: QVQLQESGGGSVQAGGSLTLSCAASGYANSNTCMGWFRQAPGKERERVAAISGVGTGTYYADSVKGRFTISRDNGKNTLFLQMNSLKPEDTAMYYCAAAPEGRAWCSRDPSGYNYWGQGTQVTVSS |
| 0.848 | 0.06 | 14.1 | 30.3 | 2.47 | CTLA4 heavy chain single domain antibody No. C22 (VHH, Camel VHH expressed in E. coli (PET32b), nickel-purified) VHH: QVQLQESGGGSVQAGGSLRLSCTVSQHTSRYYYMAWFRQAPGKEREGVASIWTGGGTPGYADSAKGRFTISTDNAKNTIYLQMNSLKPEDTAMYYCAADDRGGRWSLGTMAVGGYKYWGQGTQVTVSS |
| 0.632 | 0.121 | 5.2 | 22.6 | 2.41 | CTLA4 heavy chain single domain antibody No. J78 (VHH, Camel VHH expressed in E. coli (PET32b), nickel-purified) VHH: QVQLQESGGGSVQAGGSLRLSCTVSQHTSRYYYMAWFRQAPGKEREGVASIWTGGGTPGYADSAKGRFTISADNAKNTIYLQMNSLKPEDTAMYYCAADDRGGRWSLGTMAVGGYKYWGQGTQVTVSS |
| 0.635 | 0.037 | 17.2 | 22.7 | 2.34 | CTLA4 heavy chain single domain antibody No. J69 (VHH, Camel VHH expressed in E. coli (PET32b), nickel-purified) VHH: QVQLQESGGGLVQPGGSLRLSCAASGFTLSSYSMTWLRQAPGKGLEWVSTINSGGSTSYADSVKGRFAISRDNAKNTLYLQLNSLEIEDTGMYYCQGGLTRGQGTQVTVSS |
| 0.234 | 0.046 | 5.1 | 8.4 | 2.58 | CTLA4 heavy chain single domain antibody No. 116 (VHH, Camel VHH expressed in E. coli (PET32b), nickel-purified) VHH: QVQLQESGGGLVQPGGSLRLSCEASGFTFSSYTMTWLRQAPGKGLEWVSTINSGGSTSYADSVKGRFAISRDNAKNTLYLQLNSLEIEDTGMYYCQGGLTRGQGTQVTVSS |
